Assay results taken from article PMC4728126, “Stable G protein-effector complexes in striatal neurons: mechanism of assembly and role in neurotransmitter signaling” (eLife, 2015).

Biological target: adenylyl cyclase type 5 (mouse (endogenous in striatum)) (UniProt P84309)
Sequence (P84309 whole entry): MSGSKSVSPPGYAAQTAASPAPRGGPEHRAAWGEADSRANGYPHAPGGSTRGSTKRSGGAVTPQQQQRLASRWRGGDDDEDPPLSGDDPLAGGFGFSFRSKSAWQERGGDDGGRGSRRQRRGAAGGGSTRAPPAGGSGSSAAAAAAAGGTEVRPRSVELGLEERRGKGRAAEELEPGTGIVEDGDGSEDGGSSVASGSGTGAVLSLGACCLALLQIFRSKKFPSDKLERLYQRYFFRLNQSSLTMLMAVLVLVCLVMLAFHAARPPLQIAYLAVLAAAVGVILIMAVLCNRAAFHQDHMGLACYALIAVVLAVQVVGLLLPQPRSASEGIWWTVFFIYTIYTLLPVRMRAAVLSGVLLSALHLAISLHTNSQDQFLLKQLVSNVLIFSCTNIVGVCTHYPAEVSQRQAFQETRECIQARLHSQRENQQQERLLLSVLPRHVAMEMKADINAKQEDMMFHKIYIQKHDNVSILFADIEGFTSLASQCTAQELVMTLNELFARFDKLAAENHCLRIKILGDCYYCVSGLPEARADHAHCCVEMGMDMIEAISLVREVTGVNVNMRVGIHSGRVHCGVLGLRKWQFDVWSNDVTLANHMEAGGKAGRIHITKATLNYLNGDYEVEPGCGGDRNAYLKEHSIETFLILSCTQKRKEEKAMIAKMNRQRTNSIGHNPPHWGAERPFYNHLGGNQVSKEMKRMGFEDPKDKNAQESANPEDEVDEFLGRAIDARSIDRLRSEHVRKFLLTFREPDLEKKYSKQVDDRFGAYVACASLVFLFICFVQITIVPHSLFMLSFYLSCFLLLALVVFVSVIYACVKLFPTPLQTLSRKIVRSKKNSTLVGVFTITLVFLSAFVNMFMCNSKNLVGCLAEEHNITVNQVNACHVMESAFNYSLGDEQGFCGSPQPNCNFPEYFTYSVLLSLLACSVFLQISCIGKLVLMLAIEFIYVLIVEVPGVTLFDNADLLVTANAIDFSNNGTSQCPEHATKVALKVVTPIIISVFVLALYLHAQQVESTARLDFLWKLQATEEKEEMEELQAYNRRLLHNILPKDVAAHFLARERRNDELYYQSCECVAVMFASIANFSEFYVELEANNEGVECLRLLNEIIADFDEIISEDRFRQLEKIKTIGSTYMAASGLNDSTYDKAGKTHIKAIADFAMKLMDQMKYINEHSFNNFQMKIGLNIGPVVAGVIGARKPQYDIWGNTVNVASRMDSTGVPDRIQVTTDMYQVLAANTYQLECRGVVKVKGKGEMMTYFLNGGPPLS

Chain of Gαs-GTPγS (P63092 whole entry): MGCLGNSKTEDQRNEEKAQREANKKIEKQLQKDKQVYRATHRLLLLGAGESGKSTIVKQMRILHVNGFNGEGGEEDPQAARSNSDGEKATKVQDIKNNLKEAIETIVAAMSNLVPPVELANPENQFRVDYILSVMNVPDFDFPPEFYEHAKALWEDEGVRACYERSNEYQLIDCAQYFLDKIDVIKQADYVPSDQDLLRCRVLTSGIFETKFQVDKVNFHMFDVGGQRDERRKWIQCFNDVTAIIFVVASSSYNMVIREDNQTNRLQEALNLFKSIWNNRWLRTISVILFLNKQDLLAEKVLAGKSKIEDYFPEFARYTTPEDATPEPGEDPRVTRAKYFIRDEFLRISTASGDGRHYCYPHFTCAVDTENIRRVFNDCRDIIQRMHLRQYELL

Gαs-GTPγS (from UniProt P63092 1-394) (natural protein)
EC50 of Gαs-GTPγS-mediated activation of adenylyl cyclase in striatal membranes, PhLP1-treated reaction (0.5 μM purified PhLP1): 22.3 nM
EC50 of Gαs-GTPγS-mediated activation of adenylyl cyclase in striatal membranes, control reaction: 16.2 nM
